B1: 123 (nucleic acid, listed as Golovinomyces orontii)
chain: ATGTTGTGCTTCATTTCCATCTTCACAACAGCTCTCCTAATCTCTCCCTCCCTAGGAGTTAATTCAGCTCAGAACGGCGAAACTCCCGATGACGATTCATTAGGTTCTACGAAACACATGAACTTTGGCTCTGGTCTCTCTGAATTCAATGCTCATGAAGATATGTATGTTCCTGCCATGGATCTGAATGGGTTTAGAATAAAGCGACGACATTTTCAAAATGAAGGCTATTACTGCAGCAAATCGCGCAATCACCTCGAATTTACAAATCAATCTTTCGTGAAGAATGAAGCTAAGAAGGCATGCAAGGGTCTTGAAAGGTCAAAACACGAACACAAACACGAACATGAACATGAGCACGAAGATAAACATGAATATAAAGAATATGAAGAAGAAGAAGAAGAAGAAGAAGAAGAAGAAGAAGAAGAAAATAAAATAAAAAAAGGAAAGAAAGGAAAGAAACATTCCGATTACCCTCATCCATACAATGCAGTCAAATATGTAAAATATTCCCCACCATACTTCGAACACCGAATCCATGATGTGAAGAAAAATAAATCAGGTCTGAGCGTCATCATAGATATCGACTGTCATATTGTTGATGTTGTTGCTCTCAACCAAGATAAACGATACCATCAATGTGCCCGTGCATGA
modifications: listed as DNA
B2: 87 (nucleic acid, listed as Golovinomyces orontii)
chain: ATGCCTCTACGAAGAATACTAAAGAAGTCAAAATACGCCAAAAAGAGTCCAGAAGAAGAGACTGTCATAACACCCATCTTATTTATGCGTAGCGACACAAAAACAGAGGAGATTATTTATCCACCTAGTTATCCTGATCATGAAGAATCCTTACGCAGTAAAAAGGGGCGAAACAAGAAGGAAATACCTAGGACCCCTTCGGAATCTCGTAAATCATCTCTTAGACTCAAGCCAAACTTTCTGAAAAACCAGAAATCCGAAAAGGTGCCAGAAAATCTGCCAGATATAGAGATCATTGCTGATCAGGTCGAGAGGAGAATCAGGGCACAATGGGAAAAACGTGCGACAATTCTAGCCAAAAGAAATGAGGAAACAACAGCTAAGTATCTATCAATCACTGACGATAAACATGCAAAGGAGGTGAGAATGGCGAGAGAGCTGGACGAGGCAAATTCGGCCAACGATAACATTATAGAAGCAATTAGACTACATGAAGCGGGGAGCCGGCTGGCGGAGTTCCAAAATGAGAATAATACCCTCAGTCAAGTATTGTACGGTCTTTCTTTAAGGTACGCATGGCTGGGGATGTACTCCAGATCCGGAAAAGGCACTCAAATACCTTCAGCTGCAGCATCGTGTGCAGCCTCAATCGAGGATTTAGCACTTAGGGCGGGGAAGAAAAGTGGAGGAGCAGCGAAAGATGAATTAGTTCTTGCTATTTACGAGCTCGCAAATAGTTTTAGACATGGCTGGGGAATTCCGATCGACCGAGTGGCTGCGAAACAGTACTATGAGACGGCAGCTAATTTGGGTGATACGGACGCTATGAATGAAGTGGCCCGATGTTATGCCGAAGGAATCGGTTGCAAGAAAGACATGTTTGTGGCTGCTAAATACTACAGGATGGCTGAGAGTAAGGGTAACAAAATCATTGGAAACTCCTGGTACGTTGCAATTTTTGCTCTCTAA
modifications: listed as DNA
B3: 140 (nucleic acid, listed as Golovinomyces orontii)
chain: ATGCAATTCACTCAACTTCTCATCTTAGCCTTCGTCGCTTGCGTGGCTGCTACACCATCAGGATTGAACTTTTACGCGCGAAGAACTGACGGTGGAGACGACGAATCACCACAGACATGTACTCAGGCCCTACAAGCTATTCCCAAGTGCGCTCTGAGTTGCATCACACAACCCCCAATCGACGCCGGTTGCAAATCAGCTGCTGACTTCGCTTGCACCTGTGAGAAAAAGACCCAAAAACAAATTACAAAGGCAGAAACTCCTTGTGTTCTCAAGGCTTGCGGACTAAAAGAGGCACTTGCTGCTTCTAAGGCTGGAAAAGCTGTATGTGAGGCTTGCAACACATCCCCAAGCGACCCATCCGACGGTCACGGTGACGACGGAGATGACGATTCATACGATAGCTCTGATTCTGAATAA
modifications: listed as DNA
B4: 124 (nucleic acid, listed as Golovinomyces orontii)
chain: ATGTTCCTCAGAGCTTCGTTGACCTTCTGGGCTCTCTTGGCCACAGAGATAAGTCTGTCCACGACAGCCTCCGTTAGACGACTGGAGAATCGCGAGGTTGTTGACGATATTAATGACAATGGAATCATGATTGAGTGGGCAAGATGCAAAGGTAGACACTACGATAAAGATGAAATATATGAAACGCTCAAACAAGCTTGTGAGACGAAAAATTCATCTACCATTTTTGAAAAAGCCGTCAATCTTCGTCCACATATCCCATCGTCATCAGAGAAGTATCATCATGAGATCAACCCTCCCTACTACGCGTACTCTCTGCATGATACCGTATTCAAAGATAAACTACATCCAATCGATGTTATCGTGATGAACGATGAATGTAAGCTGGCTGGTGTACTCATGGAGACCACCAAGATCAGCTGCAACGACGACACGTGCGGCTCCGAACCCCGGTACAAAGATTGTGAGATCCGATTAACGAAAACCGCTCCGACGTCGACAGAGACGACTCAGGTTGCGGAATTGTCTTGA
modifications: listed as DNA
B5: 146 (nucleic acid, listed as Golovinomyces orontii)
chain: ATGGCTCAATCCCCGGACAGTAAGGTAGAGAAAGTCTTTACGACAAATCACCTCGGAATTGGCAGGCTCCAAGGAAAGAACGCAATTGTGACCGGAGCAGCAGGTGGTATCGGCTTGGAAACATGCATTTTATTCGCCAGAGAAGGTGCCAATGTTCTTTTGGCCGACATTTCAGCTCCAGCCCTAGAAAAAGCATATGCCAAGATTGCTCAACTTGTACCTTCGGCTCGCAAGGTCGAGAAAATGCTATGTGATGTTTCCAAGGAGGGAGACGTCAAAGCTATGGTTGACCATGTTGATTCATGGGGTGGTGTTGACATTATTTTTAACAATGCGGGCATAATGCATGCTGATGATGCTGATGCAGTTGACACCCCTGAGAAGATTTGGGATCTCACTCAGGCTATCAACGTGAAAGGTGTCTGGTTCGGCTGCAAACATGCAGTCATCTCATTTCGAAAGCATAAAAAGTCAAAGGGCTGTGTCATCAATACAGCCTCTGTTGTTGCTTTGGTGGGATCTGCAACTCCACAACTTGCCTACACCGCGAGTAAAGGAGCTGTTCTAGCTCTAACGCGGGAGCTTGCAATTGTACATGCACGCGAGGCGCCGTTGAACACTCCCTTACTTCAGGATTGGCTTGGAGATGACCAGCCTAAGCGACTTCGTCGGGAAATTCATTTTCCATGTGGCCGCTTCGGCGAAGCTGTTGAACAAGCTCGTGCTGTTCTTTTCTTAGCTTCCGATGACGCCAATTTCATTAATGGGCAGGAATTTGTTGTCGATGGCGGAATGACTAAAGCATATGTGACTCCAGAAGGTCCCCCGACCGAGGCGCCTATAAATAACTCATTACTCTCTGAGCCAATCGATAATTTTAAGACCACTAACTCATCAGACATGGGAGTTTGA
modifications: listed as DNA
B6: 122 (nucleic acid, listed as Golovinomyces orontii)
chain: ATGAAAGCCAAACACCTAATTCTGACCATAGCGCTTGCGGCTACTGCGAGGGCAGAAGATCAATATGATGCTTCTGAACTACCACAGTTGAAACATCAGCAGTTAAGAATACCTTTTCCGACAGCTATTGCTGAATCGAAGTGCAGCTGTGCCACTGAATATATAACATCTACAGGCGAGGGTTTTCTTTATACTGCTGATGTATCATCAATTACCAAAAATTTTGATCCGCAACCGACTCACGAGTATCCTCTAATCGTTGAACCATCCATATCCGTTAATTGTCCGCCCCCGTCCACCATTACTGTAACCGAGACAAAATATATTACTTTGATGCCTGATCTAGCACCATCTGATCCTGCTAGTCCGATCTTAGAACCGCAAAATACCGATGCCGGACCAAACTCTCCATTAAATCCCTCTAGCCCGATATTAGATCACCCAAATACTGATACTGGGCCGCCTTCTCCACCTGCTCCAGTCGTTTCTAACATTGAGATATCTCCGTCAGCCCCAGACCCCAGCCCTGAAGTATCTTCAAAACCACATACTGGCACACTGGGATCTAACAATGGTCTGTGGGCAATCACTTTTTCTCCATTTAATGATGATGGAACGTGCAAAGGTGAGACTGCTGTTTGGGAAGATGTGCGCTTGATTCGTAGCGCTGGCTTCAAGGCAATTCGTGTCTATGGTACTGAATGTTCGGGAATTGAACACGTCAGTTCTGCCGCCAGTTTTCACGGACTAAAACTTATTATCGGTATATTTATCAGCGAATCTGGTTGTTCTGGTGCTGCGGAGCAAGTAACTCATATCACAAAATGGGCCAAATGGGAAATTGTCGAGCTAATTGTGATTGGAAACGAAGCCCTATTTAATGGCCATACTTCTCCAGATGAGCTCGCAAGATTTATTAGCTCAACCAGAAATACACTACGATCCTCTGGTTACAATGGACCTTGCACAACAGCTGAGCCTCTCAATATCTGGCAGCAAAGCTCGGATGTATTGTGTGGTGCAGTTGATATCGTTGGATGTAACATTCATCCATTTTTCAATCCAGAAGTTGACGCTAGTCATGCCGGACCTTTCGTCAAGAGTCAGCTCGAAATTGTTAATAACATTTGTCCAAGCAAATATGGTATCAACCTCGAATGTGGATGGCCTTCGGCTGGCGAGTGCAACGGCAAGGCTTGTCCTGGTGAGTCGGAGCAAAAAATTGCTGTGGAAAGCATTCAGTCATTTGCTGGCAACGTGTCGGTAATGTTTACATACACCAACGATAAATGGAAAGACCCAGGCCCCCTCAAGATTGAGCAGAGTTTCGGATTAATTAAGCTCCTGAATAGCCACTAG
modifications: listed as DNA
B7: 167 (nucleic acid, listed as Golovinomyces orontii)
chain: ATGCTTCTAACTAAGATTCACACCGCACCAGAACTAGACTCATTTACAGCACTCGAAGATCATCAATCAAAGACTCCCGACAAATTTTATGAAACGAAACCTGTCCTATACTTTCATGACAATAATGCCAGAGCTCTTATCGTCAAAAGTCAGCTTGTCAAATTACCCATCTGTGAATTAAATTCTTCGGAAAATGAACCTGAATCAAGCCCAAAAATAGCTAATGTCGAAGTGTTTGTCAATTCCCAGAAATTGATTATATTTAACCCTGTCGAATGCATTGGCTACGCTATTCCCTACTCAGCGATTACTCTTCATGCTATCCAGAGATTAAAAGATCCAATAGATTCATATCTGGAAATACAAGGACTCTACATGCAAATAAATATATCAGATTGCAGTGGTGACGAACAACAAGATGAAGATTCGACCTATGTAGATCTAACTCTCATACCATCACTCAACTCTGATACCATAACTAAACCAAGAATCCAAACACTCTACGAGGCGGTCTCTGCCTGTTCCGACTTAAATCCTGACTTGAATCCGGAAGACGATGGGATAACTGAAGATGTAGGTGAAGAATCTAGGATAATATTTGAAGGCACTGATGGTCTTCCTGGTGTTTTCAACGGCGGATCAGATGGCAACCTCCCACCGCCGTTTCCTGGTAGTGGGGGATGGATAACAGCTGAGAATATGTCTCAATTTTTAGACGAAGAAGGTAATTGGATTGGGAAAAGCGATAACGGTGAGGATTCAATGGTTATCGGATAA
modifications: listed as DNA

Test system: G. orontii MGH1
Test: Spray-induced gene silencing (SIGS), G. orontii spore production on A. thaliana (whole plant and detached leaf assays)
Assay type: in vivo, Golovinomyces orontii
Details: topical dsRNA against G. orontii target (Gor Seq ID), n>=3

| Molecule | G. orontii Spore Production on Arabidopsis, Detached Leaf Assay, % reduction [%] | G. orontii Spore Production on Arabidopsis, Whole Plant Assay, % reduction [%] |
| --- | --- | --- |
| B1 | 38 | 32 |
| B2 | 42 | – |
| B3 | 37 | 60 |
| B4 | – | 33 |
| B5 | 63 | 42 |
| B6 | – | 33 |
| B7 | 39 | – |
